Source: publication PMC7515630 (2020)

Target: GST-LOV2GIVe (L) (Avena sativa | , UniProt O49003)

Kd: 270 nM
B1: His-Gαi3 (rat) (natural protein)
chain: MGCTLSAEDKAAVERSKMIDRNLREDGEKAAKEVKLLLLGAGESGKSTIVKQMKIIHEDGYSEDECKQYKVVVYSNTIQSIIAIIRAMGRLKIDFGEAARADDARQLFVLAGSAEEGVMTSELAGVIKRLWRDGGVQACFSRSREYQLNDSASYYLNDLDRISQTNYIPTQQDVLRTRVKTTGIVETHFTFKELYFKMFDVGGQRSERKKWIHCFEGVTAIIFCVALSDYDLVLAEDEEMNRMHESMKLFDSICNNKWFTDTSIILFLNKKDLFEEKIKRSPLTICYPEYTGSNTYEEAAAYIQCQFEDLNRRKDTKEVYTHFTCATDTKNVQFVFDAVTDVIIKNNLKECGLY
